A short description of data set [1]: folding stability dG unfold from chymotrypsin proteolysis; higher = more stable. The method, then: (§1)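 Folding stability of de novo designed mini-proteins (<80 aa, no Cys; designed by TrROS, TrMRF, ProteinMPNN and the joint model) was measured by cDNA display proteolysis with trypsin and chymotrypsin. Each protease was used at 11 concentrations in a threefold dilution series plus a no-protease condition. K50 was inferred by Bayesian fitting of sequencing counts, and dG unfold was derived against a sequence-predicted unfolded-state K50 (Tsuboyama et al. method). Sequences shown include variable-length N-terminal GS-type padding (SAGGSAGG...) inside a display construct carrying a PA tag. Rows were kept only if the AF2 dimer inter-PAE was >15, to exclude likely homo-oligomers.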

A short description of data set [2]: folding stability dG unfold (combined trypsin and chymotrypsin); higher = more stable. The method, then: as §1

± gives the half width of the 95% confidence interval. Where only a bound is given, the exact number is not on record here.

Regarding “SAGGSAGGSAGGPMYTVHTETFTTLEPGAGKRIVTTRTTNPATGATATTTTVIPLEPEALSAGGSAGGSAGG [r17_153_JUSTAS]”, the “folding stability dG unfold” value was -0.555 ± 0.39 kcal/mol in data set [1] and less than -1 kcal/mol in data set [2].

On to “SAGGSAGGSAGGPPVLTVTRYPPTPYLTVTLPGGRPVVLPVHPDTPPSDVLRLARELTASAGGSAGGSAGGS [r10_33_TrMRF]”, for which the “folding stability dG unfold” value is -0.163 ± 0.26 kcal/mol in data set [1] and less than -1 kcal/mol in data set [2].

Regarding “SAGGSAGGSAGGPVFDMSNFEEVKEAAEKAGIDVVEEDPEKNTIYVDPSKPELIKEAIQKSAGGSAGGSAGG [r7_285_JUSTAS]”, the “folding stability dG unfold” value in data set [1] was determined as 0.874 ± 0.14 kcal/mol; in data set [2], 0.205 ± 0.4 kcal/mol.

For the sequence “SAGGSAGGSAGGRPIPLDEFRDMPPNWKIEFNNGKEVEIPADDIKKPIDKGDTVRIEPVPSAGGSAGGSAGG [r7_643_TrROS]”, the “folding stability dG unfold” value in data set [1] came out at 0.705 ± 0.024 kcal/mol; in data set [2], 0.188 ± 0.098 kcal/mol.

Consider “SAGGSAGGSAGGSATVTTTTTSGATITPPALTELPSGYVAVVTPTGDTLNVVIAPKALLSAGGSAGGSAGGS [r4_279_JUSTAS]”, for which the results for the “folding stability dG unfold” value in data set [1] and in data set [2] were 0.214 ± 0.26 kcal/mol and -0.966 ± 0.49 kcal/mol, respectively.

With “SAGGSAGGSAGGSDDGSGVRLETFTVTGKGATVTLPDGSTLTVPADQTVTVTRLEVLPKSAGGSAGGSAGGS [r4_26_TrMRF]”, the “folding stability dG unfold” value in data set [1] was -0.509 ± 0.23 kcal/mol; in data set [2], less than -1 kcal/mol.

“SAGGSAGGSAGGSGFILKESPDSVLSYDAITGETKKVPSKDVVLEYDPNNGVYTLTVSKSAGGSAGGSAGGS [r4_127_JUSTAS]”: the “folding stability dG unfold” value amounted to 0.639 ± 0.12 kcal/mol in data set [1] and 0.168 ± 0.17 kcal/mol in data set [2].

As for “SAGGSAGGSAGGSGMEEIEEKMKKGYTFTVTSSSPNKTYTIKPEEVSKFKDESISVKAESAGGSAGGSAGGS [r4_157_JUSTAS]”, the entries for the “folding stability dG unfold” value in data set [1] and in data set [2] were -1.4 ± 0.84 kcal/mol and less than -1 kcal/mol, respectively.

In the case of “SAGGSAGGSAGGSGPDETILVTRKVTTTEPVLLEHDGTPRVRERTVTRTSSTTERVDLSSAGGSAGGSAGGS [r4_271_JUSTAS]”, the “folding stability dG unfold” value in data set [1] is -0.146 ± 0.21 kcal/mol; in data set [2], -0.835 ± 0.32 kcal/mol.

For “SAGGSAGGSAGGSGSTTPIPATGATLTTETLPDGSPLYTLTDPATGATTTYPPGAPVGLSAGGSAGGSAGGS [r4_158_JUSTAS]”, the “folding stability dG unfold” value was -0.26 ± 0.07 kcal/mol in data set [1] and less than -1 kcal/mol in data set [2].

For the sequence “SAGGSAGGSAGGSKLKEGEKYKVYFKKTKKELEVETLEQLKALEKAGKKVEIVKIEKVPSAGGSAGGSAGGS [r4_214_TrROS_Hall]”, the figures for the “folding stability dG unfold” value in data set [1] and in data set [2] were 0.153 ± 0.21 kcal/mol and -0.269 ± 0.14 kcal/mol, respectively.

On to “SAGGSAGGSAGGSKSIYISPDDPNNIRTPDDGEPFKGMPIEEAKKEGIEPRGPNAFRIPSAGGSAGGSAGGS [r4_306_TrROS]”, for which the “folding stability dG unfold” value in data set [1] was -0.152 ± 0.36 kcal/mol; in data set [2], -0.582 ± 0.54 kcal/mol.

“SAGGSAGGSAGGSKVYVLVPVPNPEAIWEKVKALGPDAKVNSVEFLPGEGYLRVEVDAPSAGGSAGGSAGGS [r10_23_TrMRF]”: the “folding stability dG unfold” value was -0.318 ± 0.49 kcal/mol in data set [1] and less than -1 kcal/mol in data set [2].

“SAGGSAGGSAGGSMKSVPVITTTTTVLPNGTTVTTTTVNNVTSSGTTSSTTTTVTPSLLSAGGSAGGSAGGS [r4_486_JUSTAS]”: the entries for the “folding stability dG unfold” value in data set [1] and in data set [2] were -0.571 ± 0.15 kcal/mol and -0.836 ± 0.22 kcal/mol, respectively.

In the case of “SAGGSAGGSAGGSMLTVRSSSTTPLPDGSTVTTYEVNDKPYLVRVDPNGPVVTVKPLSLLSAGGSAGGSAGG [r7_772_JUSTAS]”, the figures for the “folding stability dG unfold” value in data set [1] and in data set [2] were -0.367 ± 0.4 kcal/mol and -0.473 ± 0.29 kcal/mol, respectively.

For “SAGGSAGGSAGGSMVIKFTHPDGDPNLPVETLNLKKEELSEEKIKELKEKNPDIKIELKSAGGSAGGSAGGS [r4_422_JUSTAS]”, the “folding stability dG unfold” value in data set [1] was 0.257 ± 0.33 kcal/mol; in data set [2], -0.326 ± 0.39 kcal/mol.

As for “SAGGSAGGSAGGSPILIPRPDDYVLVVRIEEPRPLPDGDLAPPRIDVRLMPREEVERLLSAGGSAGGSAGGS [r4_238_TrMRF]”, the “folding stability dG unfold” value in data set [1] is 0.992 ± 0.08 kcal/mol; in data set [2] it was 0.378 ± 0.12 kcal/mol.

On to “SAGGSAGGSAGGSPVLKTEEKALPNGTVVTTEFLPGGRRREVITPPDGTVKVVEREIERSAGGSAGGSAGGS [r10_1184_JUSTAS]”, for which the “folding stability dG unfold” value in data set [1] is 0.356 ± 0.019 kcal/mol; in data set [2], -0.0994 ± 0.095 kcal/mol.

As for “SAGGSAGGSAGGSRYLRIETDRIDDVVEAALKTPGVEEVRVDTPADDRFYVLVKVPDEVSAGGSAGGSAGGS [r4_1_TrMRF]”, the “folding stability dG unfold” value in data set [1] is -1.13 ± 0.92 kcal/mol; in data set [2], less than -1 kcal/mol.

“SAGGSAGGSAGGSSARVPFPATGAVLEVRVTPDGRPRVRVFNPATGEVVEFPPGAEVGVSAGGSAGGSAGGS [r4_158_TrMRF]”: the “folding stability dG unfold” value in data set [1] came out at 0.762 ± 0.036 kcal/mol; in data set [2], 0.0259 ± 0.13 kcal/mol.

As to “SAGGSAGGSAGGSSMKEVTLYVPPGTLDPAVVEKLREEGVKVTVVPVPLSREPDGPPVASAGGSAGGSAGGS [r4_294_JUSTAS]”, the “folding stability dG unfold” value in data set [1] was 0.965 ± 0.17 kcal/mol; in data set [2] it was 0.0503 ± 0.38 kcal/mol.

These data come from the supplement of paper PMC12764529.
